The values that follow come from patent US8637024 (dated 2014).

The target of assay [1] is T1, human soluble CD4 (sCD4) (human, UniProt P01730).
Assay [2] concerns the target T1, human soluble CD4 (sCD4). This is another data set of the same source.
Assay [3] has as its target T1, human soluble CD4 (sCD4). As to the kind of experiment: SPR.
Assay [4] deals with T1, human soluble CD4 (sCD4). As to the kind of experiment: SPR. The source holds these as a separate data set.
The target of assay [5] is T1, human soluble CD4 (sCD4). As to the kind of experiment: competition ELISA.

Where two headings read alike, the source gives them in different places.

B1: SQTLH (clone 33) (antibody, V domains shown)
VH: QVQLQQSGPEVVKPGASVKMSCKASGYTFTSQTLHWVRQKPGQGLDWIGYINPYNDGTDYDEKFKGKATLTSDTSTSTAYMELSSLRSEDTAVYYCAREKDNYATGAWFAYWGQGTLVTVSS
VL: DIVMTQSPDSLAVSLGERVTMNCKSSQSLLYSTNQKNYLAWYQQKPGQSPKLLIYWASTRESGVPDRFSGSGSGTDFTLTISSVQAEDVAVYYCQQYYSYRTFGGGTKLEIK
On to B1, for which the Kd with human soluble CD4 (sCD4) [1] and in the assay with human soluble CD4 (sCD4) [2] was 12 pM each time.

B2: ML28 (antibody, V domains shown)
VH: QVQLQQSGPEVVKPGASVKMSCKASGYTFTSYVIHWVRQKPGQGLDWIGYINPYNDGTDYDEKFKGKATLTSDTSTSTAYMELSSLRSEDTAVYYCAREKDNYAVPGWFAYWGQGTLVTVSS
VL: DIVMTQSPDSLAVSLGERVTMNCKSSQSLLYSTNQKNYLAWYQQKPGQSPKLLIYWASTRESGVPDRFSGSGSGTDFTLTISSVQAEDVAVYYCQQYYSYRTFGGGTKLEIK
For B2, the Kd with human soluble CD4 (sCD4) [3] came to 1760 pM; with human soluble CD4 (sCD4) [1], 1410 pM.

B3: ML26 (antibody, V domains shown)
VH: QVQLQQSGPEVVKPGASVKMSCKASGYTFTSYVIHWVRQKPGQGLDWIGYINPYNDGTDYDEKFKGKATLTSDTSTSTAYMELSSLRSEDTAVYYCARQAANYATGAWFAYWGQGTLVTVSS
VL: DIVMTQSPDSLAVSLGERVTMNCKSSQSLLYSTNQKNYLAWYQQKPGQSPKLLIYWASTRESGVPDRFSGSGSGTDFTLTISSVQAEDVAVYYCQQYYSYRTFGGGTKLEIK
With B3, the figures for the Kd with human soluble CD4 (sCD4) [3] and with human soluble CD4 (sCD4) [1] were 4140 pM and 3640 pM, respectively.

B4: DQTLH (clone 27, 31) (antibody, V domains shown)
VH: QVQLQQSGPEVVKPGASVKMSCKASGYTFTDQTLHWVRQKPGQGLDWIGYINPYNDGTDYDEKFKGKATLTSDTSTSTAYMELSSLRSEDTAVYYCAREKDNYATGAWFAYWGQGTLVTVSS
VL: DIVMTQSPDSLAVSLGERVTMNCKSSQSLLYSTNQKNYLAWYQQKPGQSPKLLIYWASTRESGVPDRFSGSGSGTDFTLTISSVQAEDVAVYYCQQYYSYRTFGGGTKLEIK
Consider B4, for which the Kd with human soluble CD4 (sCD4) [1] and with human soluble CD4 (sCD4) [2] was 15 pM throughout.

B5: AQTLH (clone 30) (antibody, V domains shown)
VH: QVQLQQSGPEVVKPGASVKMSCKASGYTFTAQTLHWVRQKPGQGLDWIGYINPYNDGTDYDEKFKGKATLTSDTSTSTAYMELSSLRSEDTAVYYCAREKDNYATGAWFAYWGQGTLVTVSS
VL: DIVMTQSPDSLAVSLGERVTMNCKSSQSLLYSTNQKNYLAWYQQKPGQSPKLLIYWASTRESGVPDRFSGSGSGTDFTLTISSVQAEDVAVYYCQQYYSYRTFGGGTKLEIK
As to B5, the dissociation constant (Kd) with human soluble CD4 (sCD4) [1] and with human soluble CD4 (sCD4) [2] was 10.7 pM in each case.

B6: SQTIH (clone 23) (antibody, V domains shown)
VH: QVQLQQSGPEVVKPGASVKMSCKASGYTFTSQTIHWVRQKPGQGLDWIGYINPYNDGTDYDEKFKGKATLTSDTSTSTAYMELSSLRSEDTAVYYCAREKDNYATGAWFAYWGQGTLVTVSS
VL: DIVMTQSPDSLAVSLGERVTMNCKSSQSLLYSTNQKNYLAWYQQKPGQSPKLLIYWASTRESGVPDRFSGSGSGTDFTLTISSVQAEDVAVYYCQQYYSYRTFGGGTKLEIK
In the case of B6, the Kd in the assay with human soluble CD4 (sCD4) [1] and in the assay with human soluble CD4 (sCD4) [2] was 19.2 pM each time.

B7: E95A (antibody, V domains shown)
VH: QVQLQQSGPEVVKPGASVKMSCKASGYTFTSYVIHWVRQKPGQGLDWIGYINPYNDGTDYDEKFKGKATLTSDTSTSTAYMELSSLRSEDTAVYYCARAKDNYATGAWFAYWGQGTLVTVSS
VL: DIVMTQSPDSLAVSLGERVTMNCKSSQSLLYSTNQKNYLAWYQQKPGQSPKLLIYWASTRESGVPDRFSGSGSGTDFTLTISSVQAEDVAVYYCQQYYSYRTFGGGTKLEIK
For the molecule B7, binding in the assay with human soluble CD4 (sCD4) [4] was characterised by a dissociation constant (Kd) of 7700 pM.

B8: M28 (CDR-H1 DYTFH) (antibody, V domains shown)
VH: QVQLQQSGPEVVKPGASVKMSCKASGYTFTDYTFHWVRQKPGQGLDWIGYINPYNDGTDYDEKFKGKATLTSDTSTSTAYMELSSLRSEDTAVYYCAREKDNYATGAWFAYWGQGTLVTVSS
VL: DIVMTQSPDSLAVSLGERVTMNCKSSQSLLYSTNQKNYLAWYQQKPGQSPKLLIYWASTRESGVPDRFSGSGSGTDFTLTISSVQAEDVAVYYCQQYYSYRTFGGGTKLEIK
As to B8, the Kd in the assay with human soluble CD4 (sCD4) [4] was 14 pM; with human soluble CD4 (sCD4) [1], 13.2 pM; with human soluble CD4 (sCD4) [2] it was 13.2 pM.

B9: EYTFH (clone 40) (antibody, V domains shown)
VH: QVQLQQSGPEVVKPGASVKMSCKASGYTFTEYTFHWVRQKPGQGLDWIGYINPYNDGTDYDEKFKGKATLTSDTSTSTAYMELSSLRSEDTAVYYCAREKDNYATGAWFAYWGQGTLVTVSS
VL: DIVMTQSPDSLAVSLGERVTMNCKSSQSLLYSTNQKNYLAWYQQKPGQSPKLLIYWASTRESGVPDRFSGSGSGTDFTLTISSVQAEDVAVYYCQQYYSYRTFGGGTKLEIK
Regarding B9, the Kd with human soluble CD4 (sCD4) [1] and with human soluble CD4 (sCD4) [2] was 11.2 pM throughout.

B10: M22 (CDR-H1 DYTIH) (antibody, V domains shown)
VH: QVQLQQSGPEVVKPGASVKMSCKASGYTFTDYTIHWVRQKPGQGLDWIGYINPYNDGTDYDEKFKGKATLTSDTSTSTAYMELSSLRSEDTAVYYCAREKDNYATGAWFAYWGQGTLVTVSS
VL: DIVMTQSPDSLAVSLGERVTMNCKSSQSLLYSTNQKNYLAWYQQKPGQSPKLLIYWASTRESGVPDRFSGSGSGTDFTLTISSVQAEDVAVYYCQQYYSYRTFGGGTKLEIK
Take B10: the Kd with human soluble CD4 (sCD4) [4] is 47 pM; with human soluble CD4 (sCD4) [1], 34.6 pM; in the assay with human soluble CD4 (sCD4) [2], 34.6 pM.

B11: M24 (CDR-H1 EQTLH) (antibody, V domains shown)
VH: QVQLQQSGPEVVKPGASVKMSCKASGYTFTEQTLHWVRQKPGQGLDWIGYINPYNDGTDYDEKFKGKATLTSDTSTSTAYMELSSLRSEDTAVYYCAREKDNYATGAWFAYWGQGTLVTVSS
VL: DIVMTQSPDSLAVSLGERVTMNCKSSQSLLYSTNQKNYLAWYQQKPGQSPKLLIYWASTRESGVPDRFSGSGSGTDFTLTISSVQAEDVAVYYCQQYYSYRTFGGGTKLEIK
B11: the Kd in the assay with human soluble CD4 (sCD4) [3] was 4.2 pM; with human soluble CD4 (sCD4) [4] it was 18 pM; with human soluble CD4 (sCD4) [1], 9.7 pM; with human soluble CD4 (sCD4) [2] it was 9.7 pM.

B12: ML11 (antibody, V domains shown)
VH: QVQLQQSGPEVVKPGASVKMSCKASGYTFTSYVIHWVRQKPGQGLDWIGYINPYNDGTDYDEKFKGKATLTSDTSTSTAYMELSSLRSEDTAVYYCVREKDSFATGAWFAYWGQGTLVTVSS
VL: DIVMTQSPDSLAVSLGERVTMNCKSSQSLLYSTNQKNYLAWYQQKPGQSPKLLIYWASTRESGVPDRFSGSGSGTDFTLTISSVQAEDVAVYYCQQYYSYRTFGGGTKLEIK
With B12, the Kd with human soluble CD4 (sCD4) [3] stood at 6720 pM; with human soluble CD4 (sCD4) [1] it was 2470 pM.

B13: ML1 (CDR-H1 SRVLS) (antibody, V domains shown)
VH: QVQLQQSGPEVVKPGASVKMSCKASGYTFTSRVLSWVRQKPGQGLDWIGYINPYNDGTDYDEKFKGKATLTSDTSTSTAYMELSSLRSEDTAVYYCAREKDNYATGAWFAYWGQGTLVTVSS
VL: DIVMTQSPDSLAVSLGERVTMNCKSSQSLLYSTNQKNYLAWYQQKPGQSPKLLIYWASTRESGVPDRFSGSGSGTDFTLTISSVQAEDVAVYYCQQYYSYRTFGGGTKLEIK
For the molecule B13, the Kd in the assay with human soluble CD4 (sCD4) [3] is 2140 pM; with human soluble CD4 (sCD4) [1], 2130 pM.

B14: GQTLH (clone 25, 37) (antibody, V domains shown)
VH: QVQLQQSGPEVVKPGASVKMSCKASGYTFTGQTLHWVRQKPGQGLDWIGYINPYNDGTDYDEKFKGKATLTSDTSTSTAYMELSSLRSEDTAVYYCAREKDNYATGAWFAYWGQGTLVTVSS
VL: DIVMTQSPDSLAVSLGERVTMNCKSSQSLLYSTNQKNYLAWYQQKPGQSPKLLIYWASTRESGVPDRFSGSGSGTDFTLTISSVQAEDVAVYYCQQYYSYRTFGGGTKLEIK
Molecule B14 returned an equilibrium dissociation constant (Kd) with human soluble CD4 (sCD4) [2] of 17.3 pM.

B15: M3 (CDR-H1 EYTIH) (antibody, V domains shown)
VH: QVQLQQSGPEVVKPGASVKMSCKASGYTFTEYTIHWVRQKPGQGLDWIGYINPYNDGTDYDEKFKGKATLTSDTSTSTAYMELSSLRSEDTAVYYCAREKDNYATGAWFAYWGQGTLVTVSS
VL: DIVMTQSPDSLAVSLGERVTMNCKSSQSLLYSTNQKNYLAWYQQKPGQSPKLLIYWASTRESGVPDRFSGSGSGTDFTLTISSVQAEDVAVYYCQQYYSYRTFGGGTKLEIK
B15 registered a Kd with human soluble CD4 (sCD4) [4] of 33 pM.

B16: NQTLH (clone 26, 36) (antibody, V domains shown)
VH: QVQLQQSGPEVVKPGASVKMSCKASGYTFTNQTLHWVRQKPGQGLDWIGYINPYNDGTDYDEKFKGKATLTSDTSTSTAYMELSSLRSEDTAVYYCAREKDNYATGAWFAYWGQGTLVTVSS
VL: DIVMTQSPDSLAVSLGERVTMNCKSSQSLLYSTNQKNYLAWYQQKPGQSPKLLIYWASTRESGVPDRFSGSGSGTDFTLTISSVQAEDVAVYYCQQYYSYRTFGGGTKLEIK
The molecule B16 displayed a Kd with human soluble CD4 (sCD4) [2] of 40.6 pM.

B17: ML29 (antibody, V domains shown)
VH: QVQLQQSGPEVVKPGASVKMSCKASGYTFTSYVIHWVRQKPGQGLDWIGYINPYNDGTDYDEKFKGKATLTSDTSTSTAYMELSSLRSEDTAVYYCAREKDSLTTGAWFAYWGQGTLVTVSS
VL: DIVMTQSPDSLAVSLGERVTMNCKSSQSLLYSTNQKNYLAWYQQKPGQSPKLLIYWASTRESGVPDRFSGSGSGTDFTLTISSVQAEDVAVYYCQQYYSYRTFGGGTKLEIK
As to B17, the Kd with human soluble CD4 (sCD4) [3] came out at 4830 pM; in the assay with human soluble CD4 (sCD4) [1], 2230 pM.

B18: iMabΔm36 (iMab arm) (antibody)
chain 1: MEWSGVFMFLLSVTAGVHSQVQLQQSGPEVVKPGASVKMSCKASGYTFTSYVIHWVRQKPGQGLDWIGYINPYNDGTDYDEKFKGKATLTSDTSTSTAYMELSSLRSEDTAVYYCARAKDNAATGAWFAYWGQGTLVTVSSASTKGPSVFPLAPSSKSTSGGTAALGCLVKDYFPEPVTVSWNSGALTSGVHTFPAVLQSSGLYSLSSVVTVPSSSLGTQTYICNVNHKPSNTKVDKKVEPKSCDKTHTCPPCPAPEFEGGPSVFLFPPKPKDTLMISRTPEVTCVVVDVSHEDPEVKFNWYVDGVEVHNAKTKPREEQYNSTYRVVSVLTVLHQDWLNGKEYKCKVSNKALPASIEKTISKAKGQPREPQVYTLPPSRDELTKNQVSLTCLVKGFYPSDIAVEWESNGQPENNYKTTPPVLDSDGSFFLYSKLTVDKSRWQQGNVFSCSVLHEALHSHYTQKSLSLSPGKLEGGGGSGGGGSGGGGSGQVQLVQSGGGLVQPGGSLRLSCAASAFDFSDYEMSWVRQAPGKGLEWIGEINDSGNTIYNPSLKSRVTISRDNSKNTLYLQMNTLRAEDTAIYYCAIYGGNSGGEYWGQGTLVTVSS
chain 2: not shown
As to B18, in the assay with human soluble CD4 (sCD4) [5], the binding result was “no binding”.
